The values that follow come from paper PMC3458824, “Direct Observation of the Uptake of Outer Membrane Proteins by the Periplasmic Chaperone Skp” (PLoS ONE, 2012).

B4: OmpC-D290C-Cy5 (natural protein, Escherichia coli, UniProt P06996 22-367, looked up)
chain: AEVYNKDGNKLDLYGKVDGLHYFSDNKDVDGDQTYMRLGFKGETQVTDQLTGYGQWEYQIQGNSAENENNSWTRVAFAGLKFQDVGSFDYGRNYGVVYDVTSWTDVLPEFGGDTYGSDNFMQQRGNGFATYRNTDFFGLVDGLNFAVQYQGKNGNPSGEGFTSGVTNNGRDALRQNGDGVGGSITYDYEGFGIGGAISSSKRTDAQNTAAYIGNGDRAETYTGGLKYDANNIYLAAQYTQTYNATRVGSLGWANKAQNFEAVAQYQFDFGLRPSLAYLQSKGKNLGRGYCDEDILKYVDVGATYYFNKNMSTYVDYKINLLDDNQFTRDAGINTDNIVALGLVYQF
modifications: Cy5 (Cy5-maleimide) on the introduced cysteine at 290
notes: Outer membrane protein OmpC of Escherichia coli; 346 residues as printed; Extent of labeling greater than 90%; also called Cy5 labeled OmpC mutant D290C; source: E. coli BL21 (DE3), purified (Ni-NTA) in 8 M urea, unfolded, labeled with Cy5-maleimide
B5: Skp-E82C-Cy3 (natural protein, Escherichia coli, UniProt P0AEU7 21-161, looked up)
chain: ADKIAIVNMGSLFQQVAQKTGVSNTLENEFKGRASELQRMETDLQAKMKKLQSMKAGSDRTKLEKDVMAQRQTFAQKAQAFCQDRARRSNEERGKLVTRIQTAVKSVANSQDIDLVVDANAVAYNSSDVKDITADVLKQVK
modifications: Cy3 (Cy3-maleimide) on the introduced cysteine at 82
notes: Skp of Escherichia coli, each monomer 141 residues as printed; Extent of labeling greater than 90%; one dye on each of the three chains of the trimer; also called Cy3 labeled Skp mutant E82C; Skp-Cy3; source: E. coli BL21 (DE3), purified (Ni-NTA), labeled with Cy3-maleimide
B6: Skp-K55C-Cy3 (natural protein, Escherichia coli, UniProt P0AEU7 21-161, looked up)
chain: ADKIAIVNMGSLFQQVAQKTGVSNTLENEFKGRASELQRMETDLQAKMKKLQSMCAGSDRTKLEKDVMAQRQTFAQKAQAFEQDRARRSNEERGKLVTRIQTAVKSVANSQDIDLVVDANAVAYNSSDVKDITADVLKQVK
modifications: Cy3 (Cy3-maleimide) on the introduced cysteine at 55
notes: Skp of Escherichia coli, each monomer 141 residues as printed; Extent of labeling greater than 90%; one dye on each of the three chains of the trimer; also called Cy3 labeled Skp mutant K55C; Skp-Cy3; source: E. coli BL21 (DE3), purified (Ni-NTA), labeled with Cy3-maleimide
B7: OmpC-L139C-Cy5 (natural protein, Escherichia coli, UniProt P06996 22-367, looked up)
chain: AEVYNKDGNKLDLYGKVDGLHYFSDNKDVDGDQTYMRLGFKGETQVTDQLTGYGQWEYQIQGNSAENENNSWTRVAFAGLKFQDVGSFDYGRNYGVVYDVTSWTDVLPEFGGDTYGSDNFMQQRGNGFATYRNTDFFGCVDGLNFAVQYQGKNGNPSGEGFTSGVTNNGRDALRQNGDGVGGSITYDYEGFGIGGAISSSKRTDAQNTAAYIGNGDRAETYTGGLKYDANNIYLAAQYTQTYNATRVGSLGWANKAQNFEAVAQYQFDFGLRPSLAYLQSKGKNLGRGYDDEDILKYVDVGATYYFNKNMSTYVDYKINLLDDNQFTRDAGINTDNIVALGLVYQF
modifications: Cy5 (Cy5-maleimide) on the introduced cysteine at 139
notes: Outer membrane protein OmpC of Escherichia coli; 346 residues as printed; Extent of labeling greater than 90%; also called Cy5 labeled OmpC mutant L139C; source: E. coli BL21 (DE3), purified (Ni-NTA) in 8 M urea, unfolded, labeled with Cy5-maleimide

In assay [1] the target is Skp-K55C (Escherichia coli) (UniProt P0AEU7). Put plainly: fluorescence correlation spectroscopy (FCS); Cy3 labeled OmpC in 8 M urea diluted dropwise into 50 mM PBS pH 7.0, 100 mM NaCl, 0.01% Tween 20 with 0.2 µM reduced Skp; molecular weight of the complex from the diffusion time with free Cy3 as reference.
For assay [2], the target named is Skp-D128C (Escherichia coli) (UniProt P0AEU7). The description is as above.
Assay [3] addresses Skp-E82C (Escherichia coli) (UniProt P0AEU7). The description is as above.
In the assay “Skp-E82C-Cy3” the target is B5. Description: stopped-flow fluorescence (Cy3 self-quenching); OMP in 8 M urea mixed 1:20 with Cy3 labeled Skp mutant; both 0.03 µM final; 50 mM PBS pH 7.0, 100 mM NaCl, 0.01% Tween 20, 25°C; traces fitted to two or three exponentials. Particulars: both partners purified.
Assay [4] addresses T1, Skp-D128C-Cy3 (Escherichia coli, UniProt P0AEU7 21-161, D128C, Cy3 (Cy3-maleimide) on the introduced cysteine at 128).
T1 construct: Skp of Escherichia coli, each monomer 141 residues as printed; Extent of labeling greater than 90%; one dye on each of the three chains of the trimer; also called Cy3 labeled Skp mutant D128C; Skp-Cy3; source: E. coli BL21 (DE3), purified (Ni-NTA), labeled with Cy3-maleimide
T1 sequence (looked up): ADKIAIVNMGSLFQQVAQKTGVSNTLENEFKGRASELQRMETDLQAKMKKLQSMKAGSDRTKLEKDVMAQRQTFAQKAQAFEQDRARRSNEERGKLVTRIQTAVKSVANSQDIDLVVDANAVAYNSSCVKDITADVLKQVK
The assay is described as above. Particulars: both partners purified.

The assay “Skp-K55C-Cy3” deals with B6. Described as above. Particulars: both partners purified.
A further assay addresses T2, wild-type Skp (Escherichia coli, UniProt P0AEU7 21-161).
T2 sequence (looked up): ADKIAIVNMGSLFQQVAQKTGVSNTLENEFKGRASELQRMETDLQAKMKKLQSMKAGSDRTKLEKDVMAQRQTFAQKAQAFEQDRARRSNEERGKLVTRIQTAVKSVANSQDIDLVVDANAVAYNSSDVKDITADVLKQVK
Put plainly: cell-based or functional assay.

Assay [5] addresses T1, Skp-D128C-Cy3. Description: FRET or BRET; stopped-flow FRET; Cy5 labeled OmpC mutant in 8 M urea mixed 1:20 with Cy3 labeled Skp mutant; both 0.03 µM final; 50 mM PBS pH 7.0, 100 mM NaCl, 0.01% Tween 20, 25°C; Cy5 emission, fitted to three exponentials. Conditions: both partners purified. (BRET reads energy transfer from a luciferase to a nearby fluorophore.)
The assay “OmpC-L139C-Cy5” concerns the target B7. The description is as above. Conditions: both partners purified.
In the assay “OmpC-D290C-Cy5” the target is B4. The description is as above. Conditions: both partners purified.

What is called stoichiometry N is a count of units in the complex or per binding partner.

Take “Cy3 labeled OmpC (from UniProt P06996 22-367) (natural protein)”: the stoichiometry N in [1], in assay [2] and in assay [3] was 1 OmpC:Skp each time.

B1: transmembrane domain of OmpA (domain or fragment, Escherichia coli)
chain: APKDNTWYTGAKLGWSQYHDTGFINNNGPTHENQLGAGAFGGYQVNPYVGFEMGYDWLGRMPYKGSVENGAYKAQGVQLTAKLGYPITDDLDIYTRLGGMVWRADTKSNVYGKNHDTGVSPVFAGGVEYAITPEIATRLEYQWTNNIGDAHTIGTRPDNGMLSLGVSYRFGQGEAA
notes: Transmembrane beta-barrel domain of outer membrane protein OmpA of Escherichia coli; PDB 2GE4 is named as the structure of this domain; also called OmpA-TMD; source: E. coli BL21 (DE3), purified (Ni-NTA) in 8 M urea, unfolded
For the molecule B1, the “time constant τ1 of the first phase” value worked out at 61.7 ± 4.2 ms with Skp-E82C-Cy3, 105 ± 7.3 ms with Skp-D128C-Cy3 [4] and 38.6 ± 2.7 ms in the assay with Skp-K55C-Cy3.

B2: OmpF (natural protein, Escherichia coli)
chain: AEIYNKDGNKVDLYGKAVGLHYFSKGNGENSYGGNGDMTYARLGFKGETQINSDLTGYGQWEYNFQGNNSEGADAQTGNKTRLAFAGLKYADVGSFDYGRNYGVVYDALGYTDMLPEFGGDTAYSDDFFVGRVGGVATYRNSNFFGLVDGLNFAVQYLGKNERDTARRSNGDGVGGSISYEYEGFGIVGAYGAADRTNLQEAQPLGNGKKAEQWATGLKYDANNIYLAANYGETRNATPITNKFTNTSGFANKTQDVLLVAQYQFDFGLRPSIAYTKSKAKDVEGIGDVDLVNYFEVGATYYFNKNMSTYVDYIINQIDSDNKLGVGSDDTVAVGIVYQF
notes: Outer membrane protein OmpF of Escherichia coli; probably the mature protein as for OmpC (surmise); also called wild-type OmpF; source: E. coli BL21 (DE3), purified (Ni-NTA) in 8 M urea, unfolded
As for B2, the “time constant τ1 of the first phase” value stood at 182 ± 11 ms in the assay with Skp-E82C-Cy3, 270 ± 16 ms with Skp-D128C-Cy3 [4] and 61.3 ± 4.9 ms with Skp-K55C-Cy3.

B3: OmpC (natural protein, Escherichia coli, UniProt P06996 22-367, looked up)
chain: AEVYNKDGNKLDLYGKVDGLHYFSDNKDVDGDQTYMRLGFKGETQVTDQLTGYGQWEYQIQGNSAENENNSWTRVAFAGLKFQDVGSFDYGRNYGVVYDVTSWTDVLPEFGGDTYGSDNFMQQRGNGFATYRNTDFFGLVDGLNFAVQYQGKNGNPSGEGFTSGVTNNGRDALRQNGDGVGGSITYDYEGFGIGGAISSSKRTDAQNTAAYIGNGDRAETYTGGLKYDANNIYLAAQYTQTYNATRVGSLGWANKAQNFEAVAQYQFDFGLRPSLAYLQSKGKNLGRGYDDEDILKYVDVGATYYFNKNMSTYVDYKINLLDDNQFTRDAGINTDNIVALGLVYQF
notes: Outer membrane protein OmpC of Escherichia coli; 346 residues as printed; Kept unfolded in 8 M urea and diluted into the Skp solution (final urea 0.38 M in stopped-flow); the printed 346 residues fit the mature protein; also called wild-type OmpC; urea-denatured OmpC; source: E. coli BL21 (DE3), purified (Ni-NTA) in 8 M urea, unfolded
For the molecule B3, the “time constant τ1 of the first phase” value with Skp-E82C-Cy3 turned out to be 125 ± 7.8 ms; in the assay with Skp-D128C-Cy3 [4], 188 ± 12 ms; with Skp-K55C-Cy3 it was 82.6 ± 5.5 ms. Moreover, the “aggregation of urea-denatured OmpC (1.5 µM) by light scatter at 380 nm, 25°C, with 0, 1.5, 4.5 and 7.5 µM wild-type Skp” value with wild-type Skp was 5 fold molar excess.

Regarding B4, the “time constant τ1 of the fast phase” value with Skp-D128C-Cy3 [5] was found to be 285 ± 19 ms.

As for B5, the binding result with OmpC-L139C-Cy5 and with OmpC-D290C-Cy5 was “binds” throughout.

As to B6, the binding result in the assay with OmpC-L139C-Cy5 and with OmpC-D290C-Cy5 was “binds” throughout.

For the molecule B7, the “time constant τ1 of the fast phase” value in the assay with Skp-D128C-Cy3 [5] turned out to be 208 ± 14 ms.
